Data on one protein can be found in publication PMC4652608, “The inhibition of human farnesyl pyrophosphate synthase by nitrogen-containing bisphosphonates. Elucidating the role of active site threonine 201 and tyrosine 204 residues using enzyme mutants^” (Bone, 2015).

Substrate in series [1]: CC(C)=CCC/C(C)=C/COP(=O)(O)OP(=O)(O)O
Briefly: FPPS synthase assay. The series is classed as biochemical, Homo sapiens. The note with it: co-substrate IPP. An excerpt: (§1) FPPS synthase assay on human farnesyl pyrophosphate synthase (FPPS; wtFPPS)

Substrate in series [2]: C=C(C)CCO[P@@](=O)(O)OP(=O)(O)O
The series is described as follows: FPPS synthase assay. The series is classed as biochemical, Homo sapiens. The note with it: co-substrate GPP.
Description: as §1

B1: human farnesyl pyrophosphate synthase (FPPS; wtFPPS) (Homo sapiens) (protein)
chain: MNGDQNSDVYAQEKQDFVQHFSQIVRVLTEDEMGHPEIGDAIARLKEVLEYNAIGGKYNRGLTVVVAFRELVEPRKQDADSLQRAWTVGWCVELLQAFFLVADDIMDSSLTRRGQICWYQKPGVGLDAINDANLLEACIYRLLKLYCREQPYYLNLIELFLQSSYQTEIGQTLDLLTAPQGNVDLVRFTEKRYKSIVKYKTAFYSFYLPIAAAMYMAGIDGEKEHANAKKILLEMGEFFQIQDDYLDLFGDPSVTGKIGTDIQDNKCSWLVVQCLQRATPEQYQILKENYGQKEAEKVARVKALYEELDLPAVFLQYEEDSYSHIMALIEQYAAPLPPAVFLGLARKIYKRRK
notes: recombinant, pET-28a based LIC vector; TEV protease-cleaved for crystals; homodimer of 42 kDa monomers
With B1, in series [1], the Km stood at 2.1 ± 0.2 µM, the kcat was found to be 0.42 s⁻¹ and the kcat/Km turned out to be 200000 M⁻¹ s⁻¹. In addition, in series [2], the Km amounted to 1.8 ± 0.3 µM, the kcat amounted to 0.42 s⁻¹ and the kcat/Km turned out to be 230000 M⁻¹ s⁻¹.
